Assay: yeast display, Sf9 membrane polyspecificity reagent, FACS + sequencing; frameworks hold sequencing errors
Method in brief: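 Using colony PCR, genes from sorted yeast display clones were amplified, then sequenced on MiSeq at 2 × 250 and filtered by CDR length. The clones had been stained with 10% biotinylated, detergent-solubilized Sf9 membrane reagent for 1 hour at 4 °C and sorted by FACS into low and high (top ~1%) gates on anti-HA and streptavidin fluorescence. Polyreactivity labels come from the gate of origin.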

Row | Sequence | polyreactivity (PSR sort gate)
1 | QVQLVESGGGLVQAGGSLRLSCAASGFTFQYYAMGWYRQAPGKERELVAAISGTSGSTRYADSVKGRFTISRDNSKNTVYLQMNSLKPEDSAVYYCAAGSRGKVPVGLRYGYYYWGQGTQVTVSS | high polyreactivity
2 | QVQLVESGGGLVQAGGSLRLSCAASGFTFQYYAMGWYRQAPGKERELVAAISWSGDSTYYADSVKGRFTISRDNAKNTVYLQMNSLKPEDTAVYYCAVYYTRGYDYWGQGTQVTVSS | high polyreactivity
3 | QVQLVESGGGLVQAGGSLRLSCAASGFTFQYYAMGWYRQAPGKERELVATITTSGGNTYYADSVKGRFTISRDNAKNTVYLQMNSLKPEDTAVYYCAARNARYVHTMEYWGQGTQVTVSS | high polyreactivity
4 | QVQLVESGGGLVQAGGSLRLSCAASGFTFQYYAMGWYRQAPGKERELVPSISWSGGSTYYADSVKGRFTISRDHAKNTVYFQMNSLKPEDTAVYYCADSVTYLFCSARFSAYGYWGQGTQVTVSS | high polyreactivity
5 | QVQLVESGGGLVQAGGSLRLSCAASGFTFQYYTKGWYRQAPGKERELVAAISARGGSTYYADSVKGRFTISRDNAKNTVYLQMNSLKPEDTAVYYCNTVGIGAWGYSYPDEDNYWGQGTQVTVSS | low polyreactivity
6 | QVQLVESGGGLVQAGGSLRLSCAASGFTFRANGMGWSRQAPGKERELVAVITSGGTTNYADSVKGRFTISRDNAKNTVYLQMNSLKPEDTAVYYCAVPYEPTSIPERRDYYRADDYWGQGTQVTVSS | low polyreactivity
7 | QVQLVESGGGLVQAGGSLRLSCAASGFTFRANGMGWYRQAPGKERELVATITSGGTTNYADSVKGRLTISRDNAKNTVYLQMNSLKPEDTAVYYCNAGSVSDRQMDYWGQGTQVTVSS | low polyreactivity
8 | QVQLVESGGGLVQAGGSLRLSCAASGFTFRAYAMGWSRQAPGKERELVAAISTGGGSTYYADSVKGRFTISRDNAKNTVYLQMNSLKPEDTAVYYCNALPQRRYYYWGQGTQVTVSS | high polyreactivity
9 | QVQLVESGGGLVQAGGSLRLSCAASGFTFRAYVMGWDRQAPGKERELVASISKRGGNTYYADSVKGRFTISRDNAKNTVYLQMNSLKPEDTAVYYCAVDFFGDRGDYDYWGQGTQVTVSS | high polyreactivity
10 | QVQLVESGGGLVQAGGSLRLSCAASGFTFRDYAMGWYRQAPGKERELVAAITRGGSTNYADSVKGRFTISRDNAKNTVYLQMNSLKPEDTAVYYCAATPSWRWHVFAEFNSWGQGTQVTVSS | high polyreactivity
11 | QVQLVESGGGLVQAGGSLRLSCAASGFTFRDYAMGWYRQAPGKERELVAAITRRGGNTYYADSVKGRFTISRDNAKNTVYLQMNSLKPEDTAVYYCAARALSGHYDYWGQGTQVTVSS | high polyreactivity
12 | QVQLVESGGGLVQAGGSLRLSCAASGFTFRDYAMGWYRQAPGQERELVATITWRVGSTFYADSVKGRFTISRDNAKNTVYLQMNTLKPEDTADDYCAARWSTSYGPFDYWGQGTQVTVSS | low polyreactivity
13 | QVQLVESGGGLVQAGGSLRLSCAASGFTFRDYVMGWYRQAPGKERELVAAISRSGASTYYADSVKGRFTISRDNAKNTVYLQMNSLKPEDTAVYYCAKTQAGYSPGTYYYWGQGTQVTVSS | high polyreactivity
14 | QVQLVESGGGLVQAGGSLRLSCAASGFTFREYAMGWYRQAPGKERELVAAIDWSGGSTYYADSVKGRFTISRDNAKNTVYLQMNRLKPEDTAVYYCNVDFYDWYVYLWYVDYDYCGQGTQVTVSS | high polyreactivity
15 | QVQLVESGGGLVQAGGSLRLSCAASGFTFRFNAMGWYRHAPGKERELVAGITSGGTTNYAYSVKGRFTISRDNAKNTVYLHMNSLKPEDTAVYYCNAAWYRWKQRYDYWGQGTLVTVSS | low polyreactivity
16 | QVQLVESGGGLVQAGGSLRLSCAASGFTFRFYAMGWYRQAPGKERELVATISSRGGRTYYADSVKGRFTISRDNAKNTVYLQMNSLKPEDTAVYYCAADQKSQYQGNYWGQGTQVTVSS | high polyreactivity
17 | QVQLVESGGGLVQAGGSLRLSCAASGFTFRGNAMGWYRQAPGKERELVAAISYIGGTTYYADSVKGRFTISRDNAKNTVYLQMNSLKPEDTAVYYCAADLYRSILKPDYDYWGQGTQVTVSS | high polyreactivity
18 | QVQLVESGGGLVQAGGSLRLSCAASGFTFRGNAMGWYRQAPGKERELVAAITSSGGRTYYADSVKGRFTISRDNAKNTVYLQMNSLKPVDTAVYYCAARYAYPSRYYYWGQGTQGTVSS | high polyreactivity
19 | QVQLVESGGGLVQAGGSLRLSCAASGFTFRGYAMGWYRPAPGTERELVAAITKRGGSTYYADSVKGRFTISRDNAKNTVYLQMNSLKPEDTAVYYCAKTRRFGRYNAYWYRTYGYDYWGQGSQVTVSS | high polyreactivity
20 | QVQLVESGGGLVQAGGSLRLSCAASGFTFRGYAMGWYRQAPGKERELVAAIRRGVGSTYYADSVKGRFTISRDNAKNTVYLQMTSLKPEDTAVYYCNKDNAVDRLPWFQVTYDYWGQGTQVTVSS | low polyreactivity
21 | QVQLVESGGGLVQAGGSLRLSCAASGFTFRGYAMGWYRQAPGKERELVAAISGSGGRTHYADSVKGRFTISRDNAKNTVYLQMNSLKPEDTAVYYCNAVPYSRPLGNNYWGQGTQVTVSS | high polyreactivity
22 | QVQLVESGGGLVQAGGSLRLSCAASGFTFRGYAMGWYRQAPGKERELVAAISRGGNTKYADSVKGRFTISRDNAKNTVYLQMNSLKPEDTAVYYCASYYFSSSHRYGYWGQGTQVTVSS | high polyreactivity

Row | Sequence | polyreactivity (PSR sort gate)
23 | QVQLVESGGGLVQAGGSLRLSCAASGFTFRINAMGWYRQAPGKERELVAAITWIGGSTYYADSVKGRFTISRDNAKNTVYLQMNSLKPEDTALYYCAADVYNRWWWRAYDYWGQGTQVTVSS | high polyreactivity
24 | QVQLVESGGGLVQAGGSLRLSCAASGFTFRKYAMGWYRQAPGKERELVAANTSGGGSTYYADSVKGRFTISRDNAKNTVYLQMNSLKPEDTAVYYCAAKRSGGQGQGYGYWGQGTQVTVSS | high polyreactivity
25 | QVQLVESGGGLVQAGGSLRLSCAASGFTFRKYTMGWYRQAPGKERELVAAITNSGTSTYYADSVKGRFTISRDNAKNTVYLQMNSLKPEDTAVYYCARDNEPDYYSYPYDYWGQGTQVTVSS | low polyreactivity
26 | QVQLVESGGGLVQAGGSLRLSCAASGFTFRLNAMGWYRQAPGPERELVAAITRSGGNTYYADSVKGRFTIPRDNAKNTVYLQMNSLKPEDTAVYYCAARYFYWFRPTEYYYWGQGTQLTVSS | high polyreactivity
27 | QVQLVESGGGLVQAGGSLRLSCAASGFTFRLYAMGWYRQAPGKERELVAAISWGGGSTYYADSVKGRFTISRDNAKNTLYLQMNSLKPEDTAVYYCAAYKYGYRYYYWGQGTLVTVSS | high polyreactivity
28 | QVQLVESGGGLVQAGGSLRLSCAASGFTFRLYTMGWYRQAPGKERELVAGISTSGGSTYYADSVKGRFTISRDNAKNTVYLQMNSLKPEDTAVYYCAAQAFTSYDYWGQGTQVTVSS | high polyreactivity
29 | QVQLVESGGGLVQAGGSLRLSCAASGFTFRPNAMGWYRPAPAKERELVAAISGSGGSTYYADSVKGRFTISRDNAKNTVYLQMNSLKPEDTAVYYFAADSYYDGDYWGQGTQVTVSS | low polyreactivity
30 | QVQLVESGGGLVQAGGSLRLSCAASGFTFRQYAMGWYRQAPGKERELVAAISRSGSRTYYADSVKGRFTISRDNAKNTVYLQMNSLKPEDTAVYYCNAVFSTITGEYYWGQGTQVTVSS | high polyreactivity
31 | QVQLVESGGGLVQAGGSLRLSCAASGFTFRRNAMGWYRQAPGKEMELVASISSRGGITYYADSVKGRFTISRDNAKNTVYLQMNSLNPEDTAVYYCAVRFSRYTSNWRQSYDYWGQGTQVTVSS | low polyreactivity
32 | QVQLVESGGGLVQAGGSLRLSCAASGFTFRRNTMGWYRQEPGKERELVAAITQRGGSTYYADSVKGRFTISRDNAKNTVYLQMNSLKPEDTAVYYCAVDRHSYIYKYDYWGQGTQVTVSS | high polyreactivity
33 | QVQLVESGGGLVQAGGSLRLSCAASGFTFRRYAMGWYRQAAGKERELVASNSWRGGTTYYADSVKGRFTISRDNAKNTVYLQMNSLKPDDTAVYYCARGAATPPGYYSSGQGTQVTVSS | low polyreactivity
34 | QVQLVESGGGLVQAGGSLRLSCAASGFTFRRYAMGWYRQAPGKERELVAAISIRGGRTYYADSVKGRFTISRDNAKNTVYLQMNSLKPEVTAVYYCAAAPVGYGKRFYYWGQGTQVTVSS | high polyreactivity
35 | QVQLVESGGGLVQAGGSLRLSCAASGFTFRRYAMGWYRQAPGKERELVAAITRNGGSTYYADSVKGRFTISRDNAKNTVYLQMNRLKPEDTAVYYCNAVLYTPVYDGFDSWGQGTQVTVSS | high polyreactivity
36 | QVQLVESGGGLVQAGGSLRLSCAASGFTFRRYTMGWYRQARGKERELVAGITTSGGTYYADSVKGRFTISRDNAKNTVYLQMNSLKPEDTAVYYCAARIYYLYGMDYWGQGTQVTVSS | low polyreactivity
37 | QVQLVESGGGLVQAGGSLRLSCAASGFTFRRYVMGWYRQAPGKERELVAAISQRGGSTYYADSVKGRFTISRDNAKNTVYLQMNSLKPEDTAVYYCNIDYAGELDYWGQGTQVTVSS | high polyreactivity
38 | QVQLVESGGGLVQAGGSLRLSCAASGFTFRRYVMGWYRQAPGKERELVAAISQSGGSTYYADSVKGRFTISRDNAKNTVYLQMNSLKPEDTAVYYCAAAKVPYGWEQSDYWGQGTQVTVSS | high polyreactivity
39 | QVQLVESGGGLVQAGGSLRLSCAASGFTFRRYVMGWYRQAPGKERELVAAISQSGGSTYYADSVKGRFTISRDNAKNTVYLQMYSLKPEDTAVYYCAAVTSRYVLSTFYYWGQGTQVTVSS | high polyreactivity
40 | QVQLVESGGGLVQAGGSLRLSCAASGFTFRRYVMGWYRQAPGKERELVAAISQSGGSTYYADSVKGRFTISRDNAMNTVYLQMNSLKPEDTAVYYCAAAKVPYGWAQSDYWGQGTQVTVSS | high polyreactivity
41 | QVQLVESGGGLVQAGGSLRLSCAASGFTFRSNAMGWYRQAPGKERELVAAISSNGGRTYYADSVKGRFTISRDNAKNTVYLQMNSLKPEDTAVYYCAARGGYSQKRHDSWGQGTQVTVSS | high polyreactivity
42 | QVQLVESGGGLVQAGGSLRLSCAASGFTFRSNMGWYRQAPGKEREFVAAITKSGGSTYYADSVKGRFTISRDNAKNTVYLQMNSLKPEDTAVYYCAARARYTTGYRIIYDYWGQGSQVTVSS | high polyreactivity
43 | QVQLVESGGGLVQAGGSLRLSCAASGFTFRSYAMGWYRQAPGKERELVAAISSTGRTYYADSVKGRFTISRDNAKNTVYLQMNSLKPEDTAVYYCARNIPVSYYRYGYWGQGTQVTVSS | high polyreactivity

Source: the nanobody polyreactivity screen of Harvey et al. (2022)
